Target: KIR3DL3 protein (antigen of the affinity determination of Table 3) (human) (UniProt Q8N743)
Assay: method and antigen format not stated

KIR3DL3 protein (antigen of the affinity determination of Table 3) (human), sequence (Q8N743 other isoform, or with tags, fused parts or gaps limits assumed): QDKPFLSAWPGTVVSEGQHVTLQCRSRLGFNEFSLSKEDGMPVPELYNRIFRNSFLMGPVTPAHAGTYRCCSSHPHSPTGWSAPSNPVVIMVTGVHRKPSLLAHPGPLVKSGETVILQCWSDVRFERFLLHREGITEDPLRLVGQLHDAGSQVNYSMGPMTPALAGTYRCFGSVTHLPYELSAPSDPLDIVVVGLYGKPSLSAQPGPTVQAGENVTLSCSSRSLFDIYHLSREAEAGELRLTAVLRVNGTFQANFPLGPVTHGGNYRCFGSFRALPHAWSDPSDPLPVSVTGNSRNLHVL

B1: monoclonal 26E2 (antibody, part only; not given: VH framework 1 and CDR1, V domains shown, part only)
VH, part: RWVKQTPGQGLEWIGYIYPGDGGTNCNQKFQGKATLTADTSSSTAYMQISSLTSEDSAVYFCARSGNYGNYEGFAFWGQGTLVTVSA
VL: DIKMTQSPSSMYASLGERVTITCKASQDTNSYLSWFQQKPGKSPKTLIYRANRLVDGVPSRFSGSGSGQDYSLTISRLEYEDMGIYYCLQYNEFPYTFGGGTKLEIKRADA
  Kd: 0.26 nM
